Results as given in publication PMC2841437.

How the values were obtained:
[1] = target: activated GST fusion protein of full-length human Akt1 (T308D/S473D) (human) (UniProt P31749); test: other fluorescence titration
[2] = target: activated GST fusion protein of full-length human Akt1 (T308D/S473D) (human) (UniProt P31749); test: pull-down

Sequence of UniProt P31749 (P31749 whole entry T308D/S473D, the tested form may be a part): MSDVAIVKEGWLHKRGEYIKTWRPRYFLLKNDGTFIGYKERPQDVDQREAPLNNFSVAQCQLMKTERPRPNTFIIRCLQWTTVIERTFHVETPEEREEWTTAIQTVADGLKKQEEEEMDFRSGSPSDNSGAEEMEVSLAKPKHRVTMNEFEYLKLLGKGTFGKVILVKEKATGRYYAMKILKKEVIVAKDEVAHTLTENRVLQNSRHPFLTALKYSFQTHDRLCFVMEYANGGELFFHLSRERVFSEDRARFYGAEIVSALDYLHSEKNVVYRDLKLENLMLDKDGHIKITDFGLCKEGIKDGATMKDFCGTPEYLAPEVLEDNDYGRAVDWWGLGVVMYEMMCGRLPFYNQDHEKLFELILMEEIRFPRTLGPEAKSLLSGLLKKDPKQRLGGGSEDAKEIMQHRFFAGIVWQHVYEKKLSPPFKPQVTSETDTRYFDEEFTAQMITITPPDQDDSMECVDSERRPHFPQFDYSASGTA

Substance: T7-tagged CBP CH3 fragment with T1872D (from UniProt P45481 1756-1878) (domain or fragment)
- Kd [1]: 4.07 nM

Substance: GSK-3α/β fusion protein
- percentage of recovery [2]: 31.7%

Substance: T7-tagged CBP CH3 fragment with T1872A (from UniProt P45481 1756-1878) (domain or fragment)
- Kd [1]: 1.2 nM
